Article PMC6825267
Where two headings read alike, the source gives them in different places.

T1: RZ-1C (Arabidopsis thaliana, UniProt Q8RWN5 1-310)
T1 sequence: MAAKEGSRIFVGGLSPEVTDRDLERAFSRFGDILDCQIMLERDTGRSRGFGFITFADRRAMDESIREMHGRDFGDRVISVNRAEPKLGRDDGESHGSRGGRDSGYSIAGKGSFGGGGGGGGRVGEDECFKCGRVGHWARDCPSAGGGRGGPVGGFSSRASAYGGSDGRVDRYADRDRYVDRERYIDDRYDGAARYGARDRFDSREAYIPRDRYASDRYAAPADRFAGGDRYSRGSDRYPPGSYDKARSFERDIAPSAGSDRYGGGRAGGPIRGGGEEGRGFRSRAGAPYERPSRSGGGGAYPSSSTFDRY

T2: HIN1 1-267 (N-terminal, MYB/SANT domains) (Arabidopsis thaliana, UniProt F4J686 1-267)
T2 sequence: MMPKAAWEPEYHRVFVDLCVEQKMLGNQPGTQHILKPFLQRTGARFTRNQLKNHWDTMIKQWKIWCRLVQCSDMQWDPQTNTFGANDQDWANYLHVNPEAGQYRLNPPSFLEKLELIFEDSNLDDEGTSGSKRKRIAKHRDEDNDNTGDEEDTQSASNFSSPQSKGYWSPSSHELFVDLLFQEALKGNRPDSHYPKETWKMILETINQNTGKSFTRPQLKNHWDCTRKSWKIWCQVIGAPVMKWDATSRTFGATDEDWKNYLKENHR

B1: M2 probe (motif reduced to GAAGA) (ssRNA)
RNA: UUUCGACUUGAAGAUCUCAUC
B2: U probe (GAA repeat to CUU) (ssRNA)
RNA: UUUCGACUUCUUCUUGACAUC
B3: M probe (GAA repeat, AT1G50740 intron 1 flank) (ssRNA)
RNA: UUUCGAGAAGAAGAAGACAUC

How the values were obtained:
Test in all cases: EMSA
RZ-1C [1] = target: T1, RZ-1C
[2] = target: T2, HIN1 1-267 (N-terminal, MYB/SANT …)
RZ-1C [3] = target: T1, RZ-1C; remark: listed apart in the source
[4] = target: T2, HIN1 1-267 (N-terminal, MYB/SANT …); remark: listed apart in the source

Binder	binding result (RZ-1C [1])	binding result [2]	binding result (RZ-1C [3])	binding result [4]
B1	no binding	no binding		
B2			no binding	no binding
B3			binds	binds
